In experiment [1] the target is MED25 ACID (Homo sapiens) (UniProt Q71SY5). The note with it: cited from earlier work.
The target is the same in experiment [2]. To be noted: cited from earlier work. The source holds these as a separate data set.
Experiment [3] has the same target. The note with it: cited from earlier work. This is another data set of the same source.
For experiment [4] the target is unchanged. The experiment can be described thus: ITC. The note with it: cited from earlier work.
Experiment [5] deals with His-tagged MED25 ACID (aa 389–543) (human) (UniProt Q71SY5). The experiment can be described thus: BLI; His-MED25 ACID (1 µM) captured on Ni-NTA biosensors, NS1 proteins as analytes in 2-fold dilutions; 20 mM Tris pH 8.0, 200 mM NaCl, 1 mM TCEP, 0.05% Tween, 25°C; global fit, 1:1 model for NS1, 2:1 heterogeneous model for NS1Δα3 and the point mutants.
Experiment [6] has as its target MED25 ACID (H1 interface) (Homo sapiens) (UniProt Q71SY5). The experiment is described as follows: NMR. The note with it: cited from earlier work.
The target in experiment [7] is MED25 ACID (Homo sapiens) (UniProt Q71SY5). The experiment can be described thus: NMR. To be noted: cited from earlier work.
The target is the same in experiment [8]. The note with it: cited from earlier work. The source holds these as a separate data set.
The target is the same in experiment [9]. To be noted: cited from earlier work. This is another data set of the same source.
For experiment [10] the target is unchanged. The note with it: cited from earlier work. The source holds these as a separate data set.
Experiment [11] has the same target. To be noted: cited from earlier work. This is another data set of the same source.
Experiment [12] has the same target. The note with it: cited from earlier work. This is another data set of the same source.

Like-named read-outs stand apart in the source and are kept apart here.

Chain of MED25 ACID (Homo sapiens) (Q71SY5 389-543): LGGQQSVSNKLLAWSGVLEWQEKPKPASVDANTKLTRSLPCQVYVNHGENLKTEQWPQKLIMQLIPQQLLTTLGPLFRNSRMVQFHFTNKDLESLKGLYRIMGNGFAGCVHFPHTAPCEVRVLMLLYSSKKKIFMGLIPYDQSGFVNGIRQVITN
Chain of His-tagged MED25 ACID (aa 389–543) (human) (Q71SY5 389-543): as above
Chain of p53 TAD (P04637 1-61): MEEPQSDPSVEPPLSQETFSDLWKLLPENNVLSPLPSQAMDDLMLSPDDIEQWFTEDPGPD
Chain of ERM TAD (P41161 38-68): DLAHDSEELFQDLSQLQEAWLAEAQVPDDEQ
Chain of MED25 ACID (H1 interface) (Homo sapiens) (Q71SY5 389-543): as the sequence (Q71SY5 389-543) above
Chain of p53 TAD2 (P04637 38-61): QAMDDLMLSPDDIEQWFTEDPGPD
Chain of ATF6α TAD (P18850 40-66): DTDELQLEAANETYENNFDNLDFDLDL

Take ATF6α TAD (from UniProt P18850): the dissociation constant Kd in [1] was 500 nM.

For ERM TAD (from UniProt P41161), the Kd in experiment [2] was 600 nM.

Regarding NS1 (from UniProt P0DOE8), the Kd in experiment [3] was 20 nM; in experiment [4], 15 nM.

On to NS1 E110A (natural protein), for which, in experiment [5], the Kd1 (binding mode 1) was 1630 nM, the Kd2 (binding mode 2) is 1320 nM, the ka1 (binding mode 1) is 120000 M⁻¹ s⁻¹ and the ka2 (binding mode 2) was 3000 M⁻¹ s⁻¹. Also, in [5], the kdis1 (binding mode 1) was found to be 0.19 s⁻¹ and the kdis2 (binding mode 2) stood at 0.0034 s⁻¹.

In [5], NS1 F56A (natural protein) returned a Kd1 (binding mode 1) of 333 nM, a Kd2 (binding mode 2) of 72 nM, a ka1 (binding mode 1) of 130000 M⁻¹ s⁻¹ and a ka2 (binding mode 2) of 20000 M⁻¹ s⁻¹. In experiment [5], this substance showed a kdis1 (binding mode 1) of 0.043 s⁻¹ and a kdis2 (binding mode 2) of 0.0014 s⁻¹.

In [5], NS1 I54A (natural protein) registered a Kd1 (binding mode 1) of 71.2 nM, a Kd2 (binding mode 2) of 28.3 nM, a ka1 (binding mode 1) of 200000 M⁻¹ s⁻¹ and a ka2 (binding mode 2) of 80000 M⁻¹ s⁻¹. In experiment [5], this substance displayed a kdis1 (binding mode 1) of 0.014 s⁻¹ and a kdis2 (binding mode 2) of 0.0023 s⁻¹.

Regarding NS1 K112A (natural protein), in experiment [5], the Kd1 (binding mode 1) is 68.1 nM, the Kd2 (binding mode 2) came to 7.5 nM, the ka1 (binding mode 1) worked out at 160000 M⁻¹ s⁻¹ and the ka2 (binding mode 2) came out at 140000 M⁻¹ s⁻¹. For the same substance, in [5], the kdis1 (binding mode 1) is 0.011 s⁻¹ and the kdis2 (binding mode 2) was 0.0011 s⁻¹.

For the substance NS1 M122A (natural protein), in experiment [5], the Kd1 (binding mode 1) worked out at 42.3 nM, the Kd2 (binding mode 2) is 9.4 nM, the ka1 (binding mode 1) amounted to 210000 M⁻¹ s⁻¹ and the ka2 (binding mode 2) was 120000 M⁻¹ s⁻¹. In experiment [5], this substance gave a kdis1 (binding mode 1) of 0.009 s⁻¹ and a kdis2 (binding mode 2) of 0.0011 s⁻¹.

For the substance NS1 α3 peptide (from UniProt P0DOE8), the figures for the dissociation constant Kd in experiment [6] and in experiment [7] were 500000 nM and 10000 nM, respectively.

In experiment [5], “NS1Δα3 (NS1 aa 1–116) (domain or fragment)” showed a Kd1 (binding mode 1) of 615 nM, a Kd2 (binding mode 2) of 850 nM, a ka1 (binding mode 1) of 80000 M⁻¹ s⁻¹ and a ka2 (binding mode 2) of 3000 M⁻¹ s⁻¹. In experiment [5], this substance yielded a kdis1 (binding mode 1) of 0.05 s⁻¹ and a kdis2 (binding mode 2) of 0.0024 s⁻¹.

For the substance “RSV NS1, full-length wild type (aa 1–139) (natural protein)”, in experiment [5], the dissociation constant Kd amounted to 16.5 nM, the koff was 0.002 s⁻¹ and the kon turned out to be 120000 M⁻¹ s⁻¹.

On to VP16 TAD1 (from UniProt P06492), for which the equilibrium dissociation constant (Kd) in [8] and in [9] was 1600 nM in each case.

As for VP16 TAD (from UniProt P06492), the Kd in experiment [10] is 50 nM.

As for p53 TAD2 (from UniProt P04637), the Kd in experiment [11] was 8100 nM.

As for p53 TAD (from UniProt P04637), in experiment [12], the Kd was 800 nM.

The values above are taken from publication PMC12431651.
